The supplement of paper PMC9170038

Experiments:
MS2 coat protein [1] = assay: apparent KD of MS2 coat protein; designed switch direction (-1 OFF switch, 1 ON switch): 1; higher = weaker reporter binding
How it was run: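 Transcription of designed RNA switches on Illumina chips was done by stalled E. coli RNA polymerase. SNAP-549-labelled MS2 coat protein was then titrated in doubling steps from 0.7 or 1.5 nM to 3 µM, with steps of 0.8–1.5 h at the lowest and 10–20 min at the highest concentration. The per-design median over clusters of curve-fitted normalised fluorescence is reported as apparent KD.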

MS2 coat protein [2] = assay: apparent KD of MS2 coat protein; higher = weaker reporter binding; details: Eterna round: R107
How it was run: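 Designed RNA switches were made by on-chip transcription from Illumina sequencing clusters and then titrated with SNAP-549-labelled MS2 coat protein. Twofold steps ran from 0.7 or 1.5 nM to 3 µM, each lasting 0.8–1.5 h early and 10–20 min late, in 100 mM Tris-HCl pH 7.5, 80 mM KCl, 4 mM MgCl2, without or with constant ligand. Apparent KD is the per-design median of normalised cluster binding-curve fits.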

[3] = input ligand: microRNA oligo, concentration not stated
[4] = Eterna round: R95, input ligand: FMN 200 uM
[5] = Eterna round: R95, input ligand: microRNA oligo, concentration not stated
[6] = Eterna round: R95, input ligand: none
[7] = input ligand: theophylline 20 uM
[8] = input ligand: tryptophan 2.4 mM
[9] = input ligand: theophylline 2 mM

Sequence	apparent KD of MS2 coat protein (MS2 coat protein [2]; input ligand: arginine 13.2 mM) [µM]	apparent KD of MS2 coat protein (MS2 coat protein [2]; [7]) [µM]	apparent KD of MS2 coat protein (MS2 coat protein [2]; [8]) [µM]	apparent KD of MS2 coat protein (MS2 coat protein [2]; [9]) [µM]	apparent KD of MS2 coat protein (MS2 coat protein [2]; input ligand: none) [µM]	other results
GUGGUCAGACAUGAGGAUCACCCAUGUGGAAUAAAUAAGGGUCAGGAUAUGAAAUAUAGGAUAUAUCAGAAGGGAUGGUUGGUG (Eterna round: R96, puzzle: Same State NG 3)						apparent KD of MS2 coat protein (MS2 coat protein [1]; input ligand: FMN 200 uM): 0.101 µM; apparent KD of MS2 coat protein (MS2 coat protein [1]; [3]): 0.0811 µM; apparent KD of MS2 coat protein (MS2 coat protein [1]; input ligand: none): 0.0905 µM
GCCAACUCAUGAGGAUAUGGCACCUUAAUGGUGCCAGAAGGCAUGUCUAUUGACAUGAGGAUCACCCAUGUAUUUUUGUUGGCA [Fiskers NG1ss - 26] (Eterna round: R96, puzzle: Same State NG 1)						apparent KD of MS2 coat protein (MS2 coat protein [1]; input ligand: FMN 200 uM): 0.12 µM; apparent KD of MS2 coat protein (MS2 coat protein [1]; [3]): 0.75 µM; apparent KD of MS2 coat protein (MS2 coat protein [1]; input ligand: none): 1.21 µM
ACCAAUCCAAUAAAACAAGCGUGCUCGUCACAUGAGGAUCACCCAUGUUUAAGCGCUGUUCCUAAUUCCUCAGCGCC [Isoreder] (puzzle: Sensor for hsa-mir-208a)						apparent KD of MS2 coat protein (MS2 coat protein [1]; [4]): 0.182 µM; apparent KD of MS2 coat protein (MS2 coat protein [1]; [5]): 0.0288 µM; apparent KD of MS2 coat protein (MS2 coat protein [1]; [6]): 0.168 µM
AGUCCAGCCAGAGCUGGACAAAAGCAUGUACAUGAGGAUCACCCAUGUUCAUGUACAAGCUUUUUGCUCGUCUUAAG [Mat - hsa-mir-208a - Mod of JL - 64] (puzzle: Sensor for hsa-mir-208a)						apparent KD of MS2 coat protein (MS2 coat protein [1]; [4]): 0.583 µM; apparent KD of MS2 coat protein (MS2 coat protein [1]; [5]): 0.0159 µM; apparent KD of MS2 coat protein (MS2 coat protein [1]; [6]): 0.547 µM
AAUUAAGAUUAAGGAUAUCACGUCGAAUAGACGUGAGAAGGUGAUCAUAACAUGAGGAUCACCCAUGUAUUACAUGAAUUAAUU [SSNG1/3-B1] (Eterna round: R96, puzzle: Same State NG 1)						apparent KD of MS2 coat protein (MS2 coat protein [1]; input ligand: FMN 200 uM): 0.873 µM; apparent KD of MS2 coat protein (MS2 coat protein [1]; [3]): 0.218 µM; apparent KD of MS2 coat protein (MS2 coat protein [1]; input ligand: none): 0.498 µM
UCUCGGGUCGUAGGAUAUGUAGGAUAUGUACAUGAGGAUCACCCAUGUCUACCAGAGACAGAAGGACAGAAGGACGAGCCGAUC [pwkr ssNG2 2FMN 1F5s.6] (Eterna round: R96, puzzle: Same State NG 2)						apparent KD of MS2 coat protein (MS2 coat protein [1]; input ligand: FMN 200 uM): 0.0209 µM; apparent KD of MS2 coat protein (MS2 coat protein [1]; [3]): 0.0258 µM; apparent KD of MS2 coat protein (MS2 coat protein [1]; input ligand: none): 0.0437 µM
AGAGGAGGAGCAGGAUAUGCGAAGAAGAACGUGGCAGAAGGGUUCAUGCGAUGACAUGAGGAUCACCCAUGUACCGCGCGAGGA [AK SSNG1-V2-10] (Eterna round: R96, puzzle: Same State NG 1)						apparent KD of MS2 coat protein (MS2 coat protein [1]; input ligand: FMN 200 uM): 0.0644 µM; apparent KD of MS2 coat protein (MS2 coat protein [1]; [3]): 0.0339 µM; apparent KD of MS2 coat protein (MS2 coat protein [1]; input ligand: none): 0.0626 µM
AUAAGUUCGAUGCUCGUCUCUCCGUACAAACAUGAGGAUCACCCAUGUGAUCGGGCAGUAGCCCGAUCAGUAUGGCC [Soriin] (puzzle: Sensor for hsa-mir-208a)						apparent KD of MS2 coat protein (MS2 coat protein [1]; [4]): 0.0393 µM; apparent KD of MS2 coat protein (MS2 coat protein [1]; [5]): 0.0205 µM; apparent KD of MS2 coat protein (MS2 coat protein [1]; [6]): 0.0478 µM
AGAAAAGAAAGAAAGGAUAUACAGAAAAGAACAUGAGGAUCACCCAUGUAAGAAGAGGAGGGAGGGUAGAAGGUUCAAGAAAGAA [JR_SS2_Sub017] (puzzle: Same State 2)						apparent KD of MS2 coat protein (MS2 coat protein [1]; [4]): 0.021 µM; apparent KD of MS2 coat protein (MS2 coat protein [1]; [5]): 0.033 µM; apparent KD of MS2 coat protein (MS2 coat protein [1]; [6]): 0.0193 µM
AAAACAGGCUUCCUCUCGUCUCAAAAUGCACAUGAGGAUCACCCAUGUAAAACCCAGCGUAGUGUCGCACUACCUGA [Laresoar] (puzzle: Sensor for hsa-mir-208a)						apparent KD of MS2 coat protein (MS2 coat protein [1]; [4]): 0.161 µM; apparent KD of MS2 coat protein (MS2 coat protein [1]; [5]): 0.0234 µM; apparent KD of MS2 coat protein (MS2 coat protein [1]; [6]): 0.126 µM
AGAAAGAAAACGCAGGAUAUGGAGCAUGAGACAUGAGGAUCACCCAUGUCAAAAGAAAAGAAGAACCAGAAGGGCGGGAAAGAAA [Default title] (puzzle: Same State 2)						apparent KD of MS2 coat protein (MS2 coat protein [1]; [4]): 0.0185 µM; apparent KD of MS2 coat protein (MS2 coat protein [1]; [5]): 0.0117 µM; apparent KD of MS2 coat protein (MS2 coat protein [1]; [6]): 0.0156 µM
CAGGUGCAGUCAGAUACCAGAUCUGCACAUGAGGAUCACCCAUGUGUAAUGAGUUCAAAGAUCCCUUGGCAGCUGUGUGAUCCGA [Onbidibe]	0.0811	0.21	0.0963			
AUAAGCUGUACCGGAAUAUCCUCAUGUAUACGAGGACCGGUACGGCCGCCACUCGAUAACAUGAGGAUCACCCAUGUAAUAAUAA [|T'-M'-Trp-Ms2|_Design20]	0.0142	0.0154		0.0145		
CUAUAUAGAAAACUAUAUAGAGUGGGUGAACGAGGACCGGUACGGCCGCCACUCGGACAUGAGGAUCACCCAUGUCCAUGUGAAA [AstrosExyTryA#25]	0.0131	0.013	0.0294	0.025	0.0148	
AUACAUGAGGAUCACCCAUGUUAUAGUGAAGGAGCGACAUUUAUGUCAGGUAGGUCGCACUAAAGUUUAAUAAUUCUUUGAUCUU [JR_SSArginiA_Sub011]	0.0186	0.0249	0.0186	0.0156	0.0157	
AAUAGACAUGAGGAUCACCCAUGUAUGGAAGGAGCGGUGAAUAAACCAGGUAGGUCGCCAGUGUGAGGGUCAUCUAUGUAAUAAA [#18 Exclusion - Arginine A]	0.0376	0.0633	0.0469	0.0621	0.049	
UCACAUGAGGAUCACCCAUGUGUCAGAGAAGGAGCGGCCGCAAGGCCAGGUAGGUCGCUCAGGUAGCGUGAGGAUCACCCGUGUG [#1 Exclusion - Arginine A Attempt #10 (Inspired by cyborg)]	0.0236	0.213	0.117	0.141	0.118	
GGCACAUAGUCGGCCGCCACUAGUAUAAGAUGGAAUAACAUGAGGAUCACCCAUGUAAAAGGGACUAGGACCGGGACUAUGUGCC [Rat]	0.0122	0.0182	0.0125	0.0154	0.013	
AGCCUCAUACAUGAGGAUCACCCAUGUGAUACCAGUCAGGAAACUGACCCUUGGCAGCGCAUGAGGAUCACCCAUGUGCGAGGCA [Omei Theo A Exc A v2]	0.0251	0.171	0.0329			
UCAUGAGUUUCGGAUACCAGUGAUGUCGAUACAUGAGGAUCACCCAUGUUAGAGGAUGUACACCCUUGGCAGCCGGGUGUGGCGG [ooimullin]	0.0337	0.102	0.113	0.102	0.143	
AUACAUGAGGAUCACCCAUGUCCUCGUGAUCGAGGACCGGUACGGCCGCCACUCGGUCCUCGCGAGGUGGAGUCAAAGACUCCAA [Omei Trp A SS A v5]	0.109	0.166		0.137		
AUAACAUGAGGAUCACCCAUGUAAGCUGAAGGAGCGCUGGAAACAGCAGGUAGGUCGCAGCAUGUUUCCAAUCCUCAUGGAAACA [(M1)-(M2)-(Arg1)-(Arg2)-(A)'-(M)'-(A)''_Design9]	0.0534	0.159	0.105	0.136	0.152	
UAUCGGAACUGAAGGAGCGAGAUGACAAACAUGAGGAUCACCCAUGUUAUGGGUUGUUAAUCUCAGGUAGGUCGCAGUGGUAGCA [#27 Same State - Arginine B]	0.0527	0.138	0.151	0.194	0.151	
ACGUCCGGAUUAAUCGUGGGCAUGGUCGAUACCAGUAUUUUAAUCUACCCUUGGCAGCGACAUGAGGAUCACCCAUGUGCGAUGA [XTheo A #18]	0.0143	0.023	0.0169			
GAGUCCGCGGCGGCCGCCACUCGCGAUAUAACAUGAUAUCAGGACAUGAGGAUCACCCAUGUCACGAGGACCGGGCCGAUCCUCA [Same State Typptophan B GF 5]	0.017	0.0492		0.0358		
GGUUACUCUACGGCCGCCACUGAACAUGAGGAUCACCCAUGUAAUGUUCAGACGUCUUUAGACGACAGGACCGGGUAGUGUAACC [Tryptophan B 5]	0.119	0.208		0.232		
GUGAAGUUAGUGAGCGUUAGUCAAGCCAAACGAGGACCGGUACGGCCGCCACUCGCGCAUCGACAUGAGGAUCACCCAUGUGCCG [theeternabot_exclusion_MS2_Trp_A_12]	0.0184	0.0157		0.0177		
UCCGCGGAGACGGCCGCCACUGAGUGAGAAGUCGUGCUCUAACUACAUGAGGAUCACCCAUGUCCCAGGACCGGGUCGAAGUGUU [theeternabot_sameState_MS2_Trp_B_36]	0.0974	0.235		0.208		
UUAUUUAACGGAAGGAGCGCGGAUAAUAAAGUGGGUAAACAUGAGGAUCACCCAUGUAAACCGCAGGUAGGUCGCCGAUAUUUAU [AstrosEXyARgB#6]	0.0439	0.0776	0.0426	0.0729	0.0565	
CUGCCAUGCAGAGAUACCAGUGAGCUCAUAACAUGAGGAUCACCCAUGUACGCCGCAGAUCACCCUUGGCAGCUCUGCAUGGCAG [!#*@)]	0.00821	0.0115	0.00983	0.0101	0.00918	
